Laboratory results reported in patent publication US7446182 (University of Texas, dated 2008).

Legend:
[1] = biological target: T1, Bacillus anthracis protective antigen (PA), 83 kDa polypeptide (Bacillus anthracis, UniProt P13423 30-764); assay: SPR
[2] = biological target: T1, Bacillus anthracis protective antigen …; assay: SPR, PA immobilized on CM5 chip

T1 sequence (P13423 30-764 limits assumed): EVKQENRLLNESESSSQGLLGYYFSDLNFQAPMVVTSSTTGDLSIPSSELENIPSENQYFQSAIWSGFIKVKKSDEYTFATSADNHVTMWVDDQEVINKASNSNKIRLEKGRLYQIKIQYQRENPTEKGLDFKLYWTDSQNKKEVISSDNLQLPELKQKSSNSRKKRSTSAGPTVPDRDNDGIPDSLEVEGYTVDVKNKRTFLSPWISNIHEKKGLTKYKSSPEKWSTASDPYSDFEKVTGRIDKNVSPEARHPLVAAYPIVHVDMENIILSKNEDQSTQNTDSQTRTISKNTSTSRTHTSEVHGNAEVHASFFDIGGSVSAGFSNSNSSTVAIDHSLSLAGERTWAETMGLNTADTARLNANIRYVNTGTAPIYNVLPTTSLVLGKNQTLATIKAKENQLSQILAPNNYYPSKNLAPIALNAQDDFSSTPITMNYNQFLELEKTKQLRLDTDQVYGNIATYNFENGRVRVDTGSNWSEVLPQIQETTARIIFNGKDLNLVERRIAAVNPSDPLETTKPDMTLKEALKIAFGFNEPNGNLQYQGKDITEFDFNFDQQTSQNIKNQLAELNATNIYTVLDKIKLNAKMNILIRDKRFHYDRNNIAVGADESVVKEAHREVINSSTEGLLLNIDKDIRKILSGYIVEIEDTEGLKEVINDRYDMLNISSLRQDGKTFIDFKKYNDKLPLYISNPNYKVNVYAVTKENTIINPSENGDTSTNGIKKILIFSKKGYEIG

B1: 1H scFv (scFv)
scFv: DIQMTQTTSSLSASLGDRVTISCRASQDIRNYLNWYQQKPDGTVKLLIYYTSRLLPGVPSRFSGSGSGTDYSLTISNQEQEDIGTYFCQQGNTLPWTGFFFTKLEIRRGGGGSGGGGSGGGGSGGGGSEVQLQQSGPELVKPGASVKISCKIDSGYAFSSSWMNWVKQRFGQGLEWIGRIYPGDGDTNYNGKFKGKATLTADKSSSTAYMQLSSLTSVDSAVYFCARSGLLRYAMDYWGQGTSVTVSS
Question: Which Kd [1] does the source give for B1 here?
Answer: 0.25 nM

Question: And the “fold lower equilibrium dissociation constant than 14B7” value [1]?
Answer: 48 fold

Question: And the Kd [2]?
Answer: 0.24 nM

Question: What about the koff [2] of the same binder?
Answer: 0.00017 s⁻¹

Question: And the kon [2]?
Answer: 720000 M⁻¹ s⁻¹
